{
  "source": "patent US9045765B2",
  "about": "“EPSP synthase genes conferring herbicide resistance” (priority 2006, dated 2015)",
  "molecules": {"B1": {"name": "GRG31: glyphosate-resistant EPSP synthase, predicted translation product of grg31, from strain ATX21318 (protein)", "chain": "MNQQVITLTHPSKKIQGTVQLTGSKSESNRALIIQSLSKGQVEIANLSEAADTVTLNRVLQIASDPKPGFNTIDIGPAGTAMRFLTAYLNLVKGNFILTGTERMQQRPIGILVDAMKEIGADIHYDKKVGYPPLKIEGGLFQEKDRVKIKGNISSQYISALLLIAPALKKGLTLEIEGELTSRPYVSMTLDMLKSVGIQHEWKNNAIKIAPQAFEKQTIYVEPDWSAASYWYAIAALADANASIVLPGLRKNSLQGDIAIISIMEHFGVQSSFESDGLHLNKKVIGSDVSLFNFKECPDLAQTVVVVAAALKRDVSFTGLETLKIKETDRIAALQKEIAKFGAELIEDGDTYHLKTAQVYQPEEVTFDTYEDHRMAMAFAPLALVFDQIKIAEPQVVEKSYPDFWNHLQAQAFVIE", "modifications": "Sphingobacterium multivorum/faecium", "notes": "glyphosate-resistant EPSP synthase, predicted translation product of grg31, from strain ATX21318"}},
  "key": {"[1]": {"system": "GRG31 EPSP synthase enzymatic activity", "assay": "Temperature optimum of GRG31 enzymatic activity (phosphate release, AMPLEX Red fluorescence)", "assay_type": "biochemical, Sphingobacterium multivorum/faecium", "protocol": "Following IPTG induction, the GRG31 protein was purified to homogeneity by standard methods. […] Following incubation, the enzyme was heated to 90° C. for 1 minute to denature the enzyme, and then cooled to 4° C. The phosphate generated by each reaction was then added to a second assay containing inosine, purine nucleoside phosphorylase, xanthine oxidase, horseradish peroxidase, and the fluorescent substrate AMPLEX® Red (U.S. Patent Application No. 60/741,166, filed Dec. 1, 2005). Following incubation for 15 minutes at room temperature, fluorescent product was quantified using a Gemini XPS spectrofluorometer (Molecular Devices Corporation, Sunnyvale, Calif.). EPSP synthase product formation was measured, and is expressed in Table 5 as a percentage of maximal activity."}, "[2]": {"system": "GRG31 EPSP synthase enzymatic activity", "assay": "Thermal stability of GRG31 enzymatic activity at 37° C. (AMPLEX Red assay, 2 mM glyphosate)", "assay_type": "biochemical, Sphingobacterium multivorum/faecium", "protocol": "Following IPTG induction, the GRG31 protein was purified to homogeneity by standard methods. To measure enzymatic activity, the purified GRG31 enzyme was diluted to an appropriate assay concentration in buffer containing HEPES (50 mM, pH 7) and 50 mM KCl, and then incubated at 37° C. for 0, 2, 6 or 22 hours. A control sample was incubated alongside at 4° C. At each timepoint, an aliquot was removed from each sample and enzymatic assays were carried out in a final volume of 50 μl containing 0.5 mM shikimate-3-phosphate, 200 uM phosphoenolpyruvate (PEP), 1 U/ml xanthine oxidase, 2 U/ml nucleoside phosphorylase, 2.25 mM inosine, 1 U/ml horseradish peroxidase, 2 mM glyphosate, 50 mM HEPES/KOH pH 7.0, 100 mM KCl, and AMPLEX® Red (Invitrogen) according to the manufacturer's instructions. Assays were started by adding shikimate-3-phosphate. EPSP synthase activity was measured using a Spectramax Gemini XPS fluorescence spectrometer (Molecular Dynamics, excitation: 555 nm; emission: 590 nm). EPSP synthase thermal stability was calculated as the percentage of enzymatic activity at each timepoint at 37° C. relative to enzymatic activity in the control sample incubated alongside at 4° C. (Table 6)."}},
  "data": [
    {"molecule": "B1", "values": [
      {"measurement": "Percentage of Maximal Activity", "setting": "[1]; 10 ° C., 15 minutes incubation", "value": 42, "unit": "%"},
      {"measurement": "Percentage of Maximal Activity", "setting": "[1]; 20 ° C., 15 minutes incubation", "value": 62, "unit": "%"},
      {"measurement": "Percentage of Maximal Activity", "setting": "[1]; 30 ° C., 15 minutes incubation", "value": 69, "unit": "%"},
      {"measurement": "Percentage of Maximal Activity", "setting": "[1]; 40 ° C., 15 minutes incubation", "value": 80, "unit": "%"},
      {"measurement": "Percentage of Maximal Activity", "setting": "[1]; 50 ° C., 15 minutes incubation", "value": 100, "unit": "%"},
      {"measurement": "Percentage of Maximal Activity", "setting": "[1]; 60 ° C., 15 minutes incubation", "value": 96, "unit": "%"},
      {"measurement": "Percentage of Maximal Activity", "setting": "[1]; 70 ° C.", "value": 67, "unit": "%"},
      {"measurement": "Percentage of Maximal Activity", "setting": "[1]; 80 ° C.", "value": 36, "unit": "%"},
      {"measurement": "Percentage of control (enzymatic activity at 37° C. relative to control at 4° C.)", "setting": "[2]; 0 hours at 37° C.", "value": 100, "unit": "%"},
      {"measurement": "Percentage of control (enzymatic activity at 37° C. relative to control at 4° C.)", "setting": "[2]; 2 hours at 37° C.", "value": 86, "unit": "%"},
      {"measurement": "Percentage of control (enzymatic activity at 37° C. relative to control at 4° C.)", "setting": "[2]; 6 hours at 37° C.", "value": 68, "unit": "%"},
      {"measurement": "Percentage of control (enzymatic activity at 37° C. relative to control at 4° C.)", "setting": "[2]; 22 hours at 37° C.", "value": 29, "unit": "%"}
    ]}
  ]
}
